# Experimental data from the supplement of paper PMC12636428.
# Test system: Saccharomyces cerevisiae
# Test: transcriptional activation domain activity (GFP:mCherry ratio, weighted mean of sorted bins, harmonized to initial dataset scale) (arbitrary fluorescence ratio units); higher = stronger transcriptional activation
# Details: beta-estradiol 1 µM; induction time 4 h
# In short: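 Each value is an activation activity: the read-weighted mean of bin median fluorescence, averaged across barcodes, then mapped linearly to the initial dataset scale. The tiles, fused to an estradiol-inducible synthetic transcription factor, sat at the yeast URA3 locus in GFP-reporter diploids. Cells spent 4 hours at 30 °C in SC with 1 uM beta-estradiol before sorting into 8 GFP:mCherry bins, and tiles below 50 reads were removed.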
row,Sequence,transcriptional activation domain activity
1,IIEEQSGEDDDLPGHKKQRKESLAELLASEPADGTSPRRKSGQIKRTVPAVVL,< 6570
2,GLKRLAMLLRRMLSEKDLIFVFKGLQFLKYWTLSAEEIHTHARYWRRAWKILS,52400
3,EEGEGPREEGGEEAHEQRDEGRHEEREERKEERREEPVRAAVPVRAAEPAPVV,23000
4,YDGGRLIVAIPFVCKVLEQAGRSTVFKPPNPWLMAVVRVLVELYKFAELKLNL,53800
5,KDNATTAAVAAASSEKDDEKKAKEENKPDDKKTEEKKAEEKKSDDTAKDDASK,34300
6,MSKRLSFFFSGYLVLCGFSGVAFLFYFSLFNLVYYYPFLLLFNGFGGICIFLV,56800
7,MPTITLAWPERAYFYSLLVVSLLSAKLLHVFSHLTTIPIFLFLLYFPTFLFLD,59600
8,KSKKRKTGEQSDEDAVAAKKRKKSAGKKVAGEEKPKKARKSQAPAEAAGGRKS,16500
9,DSGKQGFLFLVCLVFFVFFWGFACDLWLGLLLLFFFFPFLSFPLFSLPHYHGH,43900
10,FTELEKHSNVSQFNTLDVSEGNQVINESASTNTSSALNCQSYTNNQDIMDILF,48800
11,MHYVFLPFFFFFLLFFLLFPLFFFFLPSFHLLLFLSSSLLLSFLSLAPATSHH,38800
12,MGLWARFICFVIVCFQITFLYCLLSFSPSFLDLQKTQPLFFTFFFFLLLSLFP,60400
13,QENAQTEKEERDEKERAREKGNEKEKGNESEKGDEKKKGNEKKKGTERGKGKG,28100
14,TKIGTGMGEQMLSREYYYIGTQLPLDRFLTFYYAHPGFHVNNIFIMLSVQLFM,51100
15,DIEQQVRFRLTQIYFLILKLDAFFHFVLCVFYAVVMTQEKYYTLWGVIDRKFI,79400
16,SGICRLTFSFSTLFFNPDPSFSFFLSFFFLFFFSFLLLSFLLNLFPFLDFFFF,24000
17,EALMRRFISKGGFMTSRINWAIQSSGVDYLHLLIVSMEYLIRRFNLNARLAIT,49400
18,SASSNTRPREPSPEPYRKPREESRDRKRHRSRDRRRDRSPGGKKSRAREGRRD,35900
19,VCEEAVGCVRRAALEGFVDEDVRAANVLVRRAGERKERAGRAGRSRVVLVDLA,32600
20,MMLVGVVAFNVLKVIPVSDPRCIGVLLVGYVFQGLGFFMTFFYLAIYILRIMT,43600
21,MSYFVFPLLLPSLPRVLPRHSICILHFLLHFRTPPSPNLTHSLLIFLFLLLVR,64000

row,Sequence,transcriptional activation domain activity
1,CWVVWGRRWLIVLLPIICLITATVSKVLQVYLVNSNAYMLYEVFLMLYISFVL,44100
2,FPHNETLPALGQDGINEDNLNETIDNMLIFDFLDDGSENNQVKYSRIIPPDIR,89000
3,MLIILLSSLVLWRLGSPCFFYTLFLFYISERSISQLPPPPTLLSILFFFTFIA,53100
4,KKKAAAEEDDEDDDEKVPAKKPAKRGRKKAADDEADEPQPPAKKAKKSPAKKT,55800
5,LLYLCRDILMAVFAWSLAIQIDPFFTNVVIRSILSPTIAKTFRWMSWCVYWWF,57700
6,KGGASPEDASAQSGGSRSKEAKETGSSPTGGKVGNSGGKSSSSSGGPEEKNKD,35600
7,WLVKVYRLGPFSRDKRYGFAKLLGLKLNYDVKQVKQKPSFQLSMALALLNKCT,64500
8,SLPVSKGVWGSVGRVILLIFTAKPLEFCIQLTLVDFVEVDAHTMRVIHCRKVR,28100
9,SRVSLTVFRFSYVWLSLIFAIPLLCAVLIELYFLMPLHAWMGPSEPHVVHLIQ,46800
10,GDEKKRNRERSREGGHRERSRSPDRERRSRRKRSHSRDRSSTRRRHKRHRSRS,30400
11,DQSEISRTTSRSDTPLRDEDGLDFWETLRSLATTNPNPPVEKSAENDGAKPQV,41100
12,MCVGTCIYINIPGLHRCYLLLLHLRLSYHIPMYMFIGVPGLRFRVALLISSYF,53300
13,PLLRVLQICSFKDLMFDVPHLHRFISNAELLRTLNHLDVSFSSYSVFLQLVGF,70500
14,SFALCNRIVVGCAILRTGKILKSWHVARVSHFSTFVFNGVIHGSIPNMILTRK,55100
15,ELLYKSYLCHLFSFFFPFPFYNIFNIIVHLFFFFLSFLSFFYYFNIYSCLYIY,69800
16,MRILFTICRYFPLLFYPFYLWAWVPVHSKELCEKLICPFGQYLCILILLCACW,56600
17,FLMLVCLEVIGRGLTNKVVLMPSGLYCIPNIIHPKGFQLALEIIFLVLFIPCP,39600
18,PLFSILFSLSSFLSLPCPAHGCGPVGSWWSCLFLLFFFLSLLVMLSLLWCFGF,41000
19,MIVVVLCLPSALTHLGCLFYHDPSSPFALVTFSVSLIIILPNLGVILFGFFNI,48600
20,LYPQDLVSSPAMSHLTANNDDFDDLLSVASMNSNYLLPVNSHGYKHISNLDEL,69100
21,MTVEPSISLLFIDYLLFLIPFLSLFILFSLVLLLSYISPCNFFFFAISSQLPW,39200

row,Sequence,transcriptional activation domain activity
1,MPSITLAWPDRAYFYSLLVVSLLSSKLLHVFSHLTAIPIFLFLLYFPTFLFLD,72500
2,MCINMYFWKVFFMWTLIFFGLSYIPLSFPGMSYFCLLQHKVFLIILGNHFLRF,56800
3,GFVLPLFFNSLCPMIPIGFSFVFHFFSHFSFLPIVCFPFPFHLFDTLGSFFFR,33100
4,SLEAWVPSVKLMMHDRSGLSRDGRTAVYHLIALTLRYSEIYVEQILVLWKGLV,44200
5,TSSTNHFYGTVVKTKDLLPIYLDVVLWMLKRDLLVTLHLRVRIVVPAELKERA,59600
6,NDREDDGEDEEEDNGGGGRQQRRKKGSAQRAGKLKPATESDEDEDKPEEEADD,29200
7,GSSDGGSHNAPGAPRPMALRALITTKEAGVIIGKNGKNVAEMREQSGAKITVS,48900
8,INKGTNRFSETVLPPQMAAEQSWSDSNMELEICLDYLHNELEVIKKRQEDFEC,60200
9,GFAKDTQDEEYVQHHDNVNPTIPPPDNYILNNENDDGLDNLLGMDYYNIDDLL,101000
10,PDIKKRPRKKSRRASAEGSEIGTESGGSDDGRQESAQRRKVERKERAGSSKEV,47100
11,IMGLVFRRARRRTVSLVTKYLITETEVVITYIPAVAVAIFPQLNWIYWMIFYP,65800
12,SSPKKKGASKSDSAGRGNTAAAAKGRGKAKANAKGSPKKGGGGSARKRRKTAE,41100
13,AAKSKGRTSRASRTRGEKSDSKEEKKRTSSLKEKRSSSEEKKSRSSKSAGKEK,38300
14,FRNGPWWCLAHYIMRAMAVFLLAMSPQVLQVHTDLVLPVKKLIRWLQWMRQDD,64200
15,KIRTNALLSSFLVSLTEGAANGTRFASPEGAVTSALVRIFLRLIWLWTATGRR,57200
16,KASGSARESVDGEEDKEEAKEKNKENVKVEEKLDADEGEKESKVKAEAAKEPG,20300
17,DLLEDDGQPSSATQKSMKRANRKRQSQKNRIVHLLNRTRRALGVSRAALILLL,57500
18,GLLCWIAIRKLGIIGLYVYMDDFFGWDFLDNLIFYRGMRRPRRQVLLLILWEF,50700
19,MLCIWLLSLYVWFVQEKGAYKPVLSSSFFFWLILQVYVHRYWLPFPSLTFLYH,55500
20,MVLISFKSISPITSPILPTYHHHHHSFHHSIHHLLLIYYKLILLFLFFLIFYL,46800
21,FLRGLVVLLWSLDSLHLAFIVHGLYYYLIQNYGNYFSLFKPVWSFVGQILVSS,57300

row,Sequence,transcriptional activation domain activity
1,MCSIFLVFIVPPNPLSYLISFAFFFLFSFYLWCLLRRGLSYFALYAYLKYALL,43700
2,GKDAEAADKPIEGKDAGDVEMNDAPEKEPEAEAAKPKGRGGRPKKVVPAAAAP,23900
3,LDFLDLWTFWPWTFWPWTFWTVGLFGLLALDLLALDFLDLWTFWPWTFWPWTF,60400
4,MLMGCLCSYLRPHSLGCEGCYLLLHSLFIYGLRLVIGRFMSWSFSLVSFLFFY,62100
5,AHQRTTGASAEEKLALEVVLIMRNDLITHVIVYVLRSFLVYNAPLTGPLAEKL,55000
6,NSGDEGDAGAAEVEAPKSKKKRGRAAKEEDDDEETPAPVPKKARGRAKKATKE,23700
7,IIYVPQARLMNFFNALTTQSFLYFWAVCLMRLHIAAFLPNLHNGKPYLITVYT,47500
8,MTVTPVNGYGWSRANKIGWTVFYISLWGYSNCSYFFPLPLYFSYVFFFFPFYP,42200
9,MITVLSVIPLLLLLLLLLLLLLLLLLLLLISPLFRLGSLFVFCPYILFRLWWV,42000
10,WLSHSQKKHCELCKTPFRFTKLYAPNMPKALPTHIFLSHMAKYILRNLLVWLR,61200
11,AGKKTVTSEEAEVKVEVEAEVGVEVDIEPAAAKKPAKKTKAKVKTIAEEEVKV,31900
12,FNEFYPSGWPPSYFIVILRMLFLVCGLFFLWSFFFVVFFFCGLLSLLFFILVV,28500
13,SLLLNDFSELRNGYFTSLFSLSLFLFLFAMPWTLTDITPFLMVLLFYHILFFI,69600
14,ELLSVLIPPSPAETRGPTTLSTSPSFNEHGVVAEASFLSSILELGIKHPKSNN,27900
15,MLFFFLYIFLCGCFPFWNMSIFFSVIPPFFSFLPLMLLFFFFFGMFGQRINIF,36300
16,MSRVYNLFLKAFRYKLPSLYQHIHVILNLPPSMYLEAMFLTLFTLHCPIDVAS,53400
17,VLQILAFAMFIICTLTLQLRLRSNPPVQCVAGVVTHYRRYFIALYCTSGLFLI,56600
18,GSAAKAGAGTGAGKAAAGGKTSAAATARGGGGAGAGGGKGAGGASAKAGTGGG,31600
19,LREGGVLAVDGTSVGSVEVIYSYSIVVHTRITFRVVARVGRCLVVCLVRWDFY,38200
20,LVTVRTMYRSYVEHGSGIGLTFARLITKDGLVLAISDFVLVFSTFLCVPFVKL,44300
